From patent publication US20220227883A1 (published 2022) come the findings set out here.

Values joined by “and” are separate entries in the source; they are usually repeats but may differ in a detail not shown here. Equal values may be shown once.

In test [1] the target is HLA-A*02:01 presented KRAS^G12V epitope on cells (human). Kind of test: cell-based or functional assay.
Test [2] deals with HLA-A*02:01 presented KRAS^G12D epitope on cells (human). Nature of the test: cell-based or functional assay.
The target in test [3] is HLA-A*02:01 presented KRAS^wild type epitope on cells (human). Nature of the test: cell-based or functional assay.
For test [4], the target named is T1, KRAS wild type peptide on HLA-A*02:01 (human).
T1 peptide: KLVVVGAGGV
Kind of test: killing. As for the experimental part:
(§1) KTCR1, KRAS^G12V-specific, HLA-A*02:01-restricted TCR and KTCR2 and KTCR3, KRAS^G12D-specific, HLA-A*02:01-restricted TCRs were co cultured with K562-A*02:01 antigen presenting cells which were peptide pulsed with either the KRAS^G12D, KRAS^G12V, KRAS^WT peptide (10 μg/mL) for 5 hours at an effector to target cell ratio of 5:1.

The target in test [5] is A*02:01-KRAS^G12V tetramer (human) (UniProt P61769). Nature of the test: tetramer staining of TCR-transduced T cells, flow cytometry (FIG. 24). A general note: A flow cytometer gives signals particle by particle.
Test [6] addresses T2, KRAS G12D peptide on HLA-A*02:01 (human).
T2 peptide: KLVVVGADGV
Nature of the test: multimer staining.

Test [7] deals with T3, KRAS G12V peptide on HLA-A*02:01 (human).
T3 peptide: KLVVVGAVGV
Kind of test: multimer staining.

The target in test [8] is T2, KRAS G12D peptide on HLA-A*02:01. Kind of test: killing. As for the experimental part: as §1
The target of test [9] is T3, KRAS G12V peptide on HLA-A*02:01. Nature of the test: killing. Here is the method: as §1

B1: KTCR-1 (TCR, V domains shown)
Valpha: TQLLEQSPQFLSIQEGENLTVYCNSSSVFSSLQWYRQEPGEGPVLLVTVVTGGEVKKLKRLTFQFGDARKDSSLHITAAQPGDTGLYLCAGEFESNAGNMLTFGGGTRLMVKP
Vbeta: DGGITQSPKYLFRKEGQNVTLSCEQNLNHDAMYWYRQDPGQGLRLIYYSQIVNDFQKGDIAEGYSVSREKKESFPLTVTSAQKNPTAFYLCASSIWLGPKGPGELFFGEGSRLTVL
Take B1: in test [1], the IFNγ ELISpot, KTCR-1 CD8+ T cells co-cultured with CFPAC-1 (HLA-A*02:01^+ KRAS^G12V), Mean (SFU of IFNγ/2.0 × 10^4 cell input) is 42; the IFNγ ELISpot, KTCR-1 CD8+ T cells co-cultured with CFPAC-1 (HLA-A*02:01^+ KRAS^G12V), replicate (SFU of IFNγ/2.0 × 10^4 cell input) is 52 and 42; the Mean % cytotoxicity (cell lysis) of K562 A*02:01 + KRAS^G12V target cells, FVS780 flow cytometry, 5 hours, effector to target 5:1 was 16.5%. For the same molecule, in test [2], the IFNγ ELISpot, KTCR-1 CD8+ T cells co-cultured with PANC-1 (HLA-A*02:01^+ KRAS^G12D), Mean (SFU of IFNγ/2.0 × 10^4 cell input) turned out to be 19.5; the IFNγ ELISpot, KTCR-1 CD8+ T cells co-cultured with PANC-1 (HLA-A*02:01^+ KRAS^G12D), replicate (SFU of IFNγ/2.0 × 10^4 cell input) is 13 and 18; the Mean % cytotoxicity (cell lysis) of K562 A*02:01 + KRAS^G12D target cells, FVS780 flow cytometry, 5 hours, effector to target 5:1 turned out to be 4%. In test [3], the Mean % cytotoxicity (cell lysis) of K562 + KRAS^Wild type target cells, FVS780 flow cytometry, 5 hours, effector to target 5:1 was 2.9%. Further, the binding result in test [4] was “no recognition”. Besides, the percent of TCR transduced T cells tetramer positive in [5] is over 90%. Moreover, the binding result in test [6] is on record as “no recognition”. Moreover, in test [7], the binding result is listed as “recognises”.

B2: KTCR-3 (TCR, V domains shown)
Valpha: TQLLEQSPQFLSIQEGENLTVYCNSSSVFSSLQWYRQEPGEGPVLLVTVVTGGEVKKLKRLTFQFGDARKDSSLHITAAQPGDTGLYLCAGEFESNAGNMLTFGGGTRLMVKP
Vbeta: DTEVTQTPKHLVMGMTNKKSLKCEQHMGHRAMYWYKQKAKKPPELMFVYSYEKLSINESVPSRFSPECPNSSLLNLHLHALQPEDSALYLCASSLQITTDGYTFGSGTRLTVV
As for B2, in test [1], the IFNγ ELISpot, KTCR-3 CD8+ T cells co-cultured with CFPAC-1 (HLA-A*02:01^+ KRAS^G12V), Mean (SFU of IFNγ/2.0 × 10^4 cell input) is 21; the IFNγ ELISpot, KTCR-3 CD8+ T cells co-cultured with CFPAC-1 (HLA-A*02:01^+ KRAS^G12V), replicate (SFU of IFNγ/2.0 × 10^4 cell input) is 13 and 19; the Mean % cytotoxicity (cell lysis) of K562 A*02:01 + KRAS^G12V target cells, FVS780 flow cytometry, 5 hours, effector to target 5:1 is 2%. In test [2], the IFNγ ELISpot, KTCR-3 CD8+ T cells co-cultured with PANC-1 (HLA-A*02:01^+ KRAS^G12D), Mean (SFU of IFNγ/2.0 × 10^4 cell input) amounted to 63; the IFNγ ELISpot, KTCR-3 CD8+ T cells co-cultured with PANC-1 (HLA-A*02:01^+ KRAS^G12D), replicate (SFU of IFNγ/2.0 × 10^4 cell input) was 73 and 53; the Mean % cytotoxicity (cell lysis) of K562 A*02:01 + KRAS^G12D target cells, FVS780 flow cytometry, 5 hours, effector to target 5:1 was found to be 16.3%. Also, the Mean % cytotoxicity (cell lysis) of K562 + KRAS^Wild type target cells, FVS780 flow cytometry, 5 hours, effector to target 5:1 in test [3] is 2.82%. The binding result in test [8] is reported as “recognises”. Also, in [4], the binding result is recorded as “no recognition”. In test [9], the binding result was “no recognition”.

B3: KTCR-2 (TCR, V domains shown)
Valpha: GESVGLHLPTLSVQEGDNSIINCAYSNSASDYFIWYKQESGKGPQFIIDIRSNMDKRQGQRVTVLLNKTVKHLSLQIAATQPGDSAVYFCAENRDTDKLIFGTGTRLQVFP
Vbeta: DGGITQSPKYLFRKEGQNVTLSCEQNLNHDAMYWYRQDPGQGLRLIYYSQIVNDFQKGDIAEGYSVSREKKESFPLTVTSAQKNPTAFYLCASSIWLGPKGPGELFFGEGSRLTVL
Turning to B3, in test [1], the IFNγ ELISpot, KTCR-2 CD8+ T cells co-cultured with CFPAC-1 (HLA-A*02:01^+ KRAS^G12V), Mean (SFU of IFNγ/2.0 × 10^4 cell input) is 11.5; the IFNγ ELISpot, KTCR-2 CD8+ T cells co-cultured with CFPAC-1 (HLA-A*02:01^+ KRAS^G12V), replicate (SFU of IFNγ/2.0 × 10^4 cell input) is 8 and 15; the Mean % cytotoxicity (cell lysis) of K562 A*02:01 + KRAS^G12V target cells, FVS780 flow cytometry, 5 hours, effector to target 5:1 is 4%. For the same molecule, in test [2], the IFNγ ELISpot, KTCR-2 CD8+ T cells co-cultured with PANC-1 (HLA-A*02:01^+ KRAS^G12D), Mean (SFU of IFNγ/2.0 × 10^4 cell input) worked out at 98.5; the IFNγ ELISpot, KTCR-2 CD8+ T cells co-cultured with PANC-1 (HLA-A*02:01^+ KRAS^G12D), replicate (SFU of IFNγ/2.0 × 10^4 cell input) is 105 and 92; the Mean % cytotoxicity (cell lysis) of K562 A*02:01 + KRAS^G12D target cells, FVS780 flow cytometry, 5 hours, effector to target 5:1 is 19.1%. In addition, the Mean % cytotoxicity (cell lysis) of K562 + KRAS^Wild type target cells, FVS780 flow cytometry, 5 hours, effector to target 5:1 in [3] amounted to 4.79%. The binding result in test [8] is listed as “recognises”. Further, the binding result in test [4] was “no recognition”. Also, in test [9], the binding result is “no recognition”.
